From patent publication US20090011974A1, “Scavenger Receptor B1 (Cla-1) Targeting for the Treatment of Infection, Sepsis and Inflammation” (priority 2002, published 2009)
Values joined by “and” are separate entries in the source; they are usually repeats but may differ in a detail not shown here. Equal values may be shown once. “Also recorded” adds a separate entry of the source. Where a SMILES comes first, the peptide text is derived from it.

Columns and labels:
THP-1 cells = details: 20 μg/ml
Procedure: Assays for cytokines and lactate dehydrogenase (LD). Interleukins 6 and 8 (IL-6 and IL-8) and tumor-necrosis factor-α (TNF-α) are measured in culture supernatants of THP-1 cells using commercial ELISA kits (Biosource International, USA). LD activity was measured in the supernatants by a Hitachi 917 automated chemistry analyzer (Roche).

[1] = molecular target: T1, CLA-1 (CD36 and LIMPII Analogous-1), human scavenger receptor class B type I (human, UniProt Q8WTV0 1-552); assay: flow cytometry of Alexa-488 SAA uptake
T1 construct: whole, on cells; Target is CLA-1 on stably transfected HeLa cells, compared with mock-transfected HeLa cells, which carry a low endogenous level of CLA-1; also called SR-BI/CLA-1; human SR-BI
T1 sequence (looked up): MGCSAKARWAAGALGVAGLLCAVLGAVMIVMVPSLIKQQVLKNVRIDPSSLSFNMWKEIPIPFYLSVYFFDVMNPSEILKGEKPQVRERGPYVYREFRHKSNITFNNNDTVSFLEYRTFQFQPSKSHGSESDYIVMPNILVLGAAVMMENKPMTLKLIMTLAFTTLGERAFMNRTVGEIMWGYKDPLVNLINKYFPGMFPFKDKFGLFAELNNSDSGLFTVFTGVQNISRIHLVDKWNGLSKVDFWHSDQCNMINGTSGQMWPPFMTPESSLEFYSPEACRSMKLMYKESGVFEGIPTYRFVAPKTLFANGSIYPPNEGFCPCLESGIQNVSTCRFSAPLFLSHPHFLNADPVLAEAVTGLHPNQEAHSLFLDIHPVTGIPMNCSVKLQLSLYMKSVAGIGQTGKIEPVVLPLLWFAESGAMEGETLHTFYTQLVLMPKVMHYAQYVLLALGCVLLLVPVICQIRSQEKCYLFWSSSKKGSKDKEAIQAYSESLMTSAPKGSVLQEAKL

CLA-1 [2] = molecular target: T2, CLA-1 (Homo sapiens, UniProt Q8WTV0); assay: FACS analysis of Alexa 488-SAA and Alexa 488-HDL uptake in HeLa cells; format: cell-based; details: CLA-1 overexpressing HeLa cells
T2 construct: using the expression plasmid pTRE2 (Clontech, Pal Alto, Calif.), encoding a CLA-1 protein (pTRE2-CLA-1); expressed in transfected cells; host or cells: HeLa (Tet-off) cells (Clontech), stably co-transfected with pTRE2-CLA-1 and pTK-Hyg and selected with hygromycin
T2 sequence (Q8WTV0 1-509 isoform Q8WTV0-2): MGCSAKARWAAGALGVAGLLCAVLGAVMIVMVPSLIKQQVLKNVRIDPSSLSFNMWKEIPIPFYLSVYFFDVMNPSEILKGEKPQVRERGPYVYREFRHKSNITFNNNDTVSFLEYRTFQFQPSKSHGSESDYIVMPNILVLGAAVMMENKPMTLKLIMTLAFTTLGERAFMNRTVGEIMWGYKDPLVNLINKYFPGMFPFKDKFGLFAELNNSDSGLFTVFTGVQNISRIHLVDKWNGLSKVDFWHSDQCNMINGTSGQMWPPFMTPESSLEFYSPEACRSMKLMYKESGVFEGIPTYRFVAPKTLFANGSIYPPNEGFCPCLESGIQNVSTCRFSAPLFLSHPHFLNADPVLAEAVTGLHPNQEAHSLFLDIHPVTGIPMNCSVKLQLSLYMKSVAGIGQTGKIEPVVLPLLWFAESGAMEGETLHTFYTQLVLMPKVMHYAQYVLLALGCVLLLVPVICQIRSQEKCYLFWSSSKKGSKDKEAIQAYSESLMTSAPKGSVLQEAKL
Procedure: Ligand-uptake experiments. Binding experiments are performed at 37° C. using concentrations between 1.25 and 30 μg/ml. All incubations are performed in DMEM containing 2 mg/ml BSA. After a 2-hr-incubation […], the cells are rinsed with ice-cold PBS and released by a 30-min incubation in EDTA containing Cell stripper (CellGro, USA). Cells are resuspended and added to an equal volume of 4% paraformaldehyde in PBS. Cell fluorescence is analyzed by FACS analyses.

CLA-1 [3] = molecular target: T2, CLA-1; assay: Competition for Alexa 488-SAA uptake in CLA-1 overexpressing and mock transfected HeLa cells (FACS); format: binding; details: mock transfected and CLA-1 overexpressing HeLa cells
Procedure: Competition experiments. Cells are cultured for 24 hr in serum free DMEM before experiments. […] For KKB-1 anti-CLA-1 blocking experiments, cells are pre-incubated with KKB-1 rabbit anti-serum (non-immune rabbit serum as a negative control) at a dilution of 1:10 followed by ligand addition to a final concentration of 5 μg/ml and a 1-hour incubation. Cell fluorescence was analyzed by FACS analyses.

Molecule: CC(C)C[C@H](NC(=O)[C@H](Cc1c[nH]c2ccccc12)NC(=O)[C@H](CC(=O)O)NC(=O)[C@@H]1CCCN1C(=O)[C@H](Cc1ccccc1)NC(=O)[C@H](C)NC(=O)[C@H](CCC(=O)O)NC(=O)[C@H](CCCCN)NC(=O)[C@H](CC(C)C)NC(=O)[C@H](CCCCN)NC(=O)[C@H](CCC(=O)O)NC(=O)[C@H](C)NC(=O)[C@@H](NC(=O)[C@H](CCCCN)NC(=O)[C@H](CC(=O)O)NC(=O)[C@H](Cc1ccc(O)cc1)NC(=O)[C@H](Cc1ccccc1)NC(=O)[C@H](C)NC(=O)[C@H](CCCCN)NC(=O)[C@H](CC(C)C)NC(=O)[C@H](Cc1c[nH]c2ccccc12)NC(=O)[C@@H](N)CC(=O)O)C(C)C)C(=O)N[C@@H](CCCCN)C(=O)N[C@@H](C)C(=O)N[C@@H](Cc1ccccc1)C(=O)N[C@@H](Cc1ccc(O)cc1)C(=O)N[C@@H](CC(=O)O)C(=O)N[C@@H](CCCCN)C(=O)N[C@H](C(=O)N[C@@H](C)C(=O)N[C@@H](CCC(=O)O)C(=O)N[C@@H](CCCCN)C(=O)N[C@@H](CC(C)C)C(=O)N[C@@H](CCCCN)C(=O)N[C@@H](CCC(=O)O)C(=O)N[C@@H](C)C(=O)N[C@@H](Cc1ccccc1)C(=O)O)C(C)C [Peptide L-37PA] (H-DWLKAFYDKVAEKLKEAFPDWLKAFYDKVAEKLKEAF-OH; N-terminus and C-terminus assumed)
- toxic effect (LDH release, β-actin expression) (THP-1 cells): no apparent toxic effect

B1: Serum Amyloid A1 (StressGene) (ligand, UniProt P0DJI8 19-122, looked up)
chain: RSFFSFLGEAFDGARDMWRAYSDMREANYIGSDKYFHARGNYDAAKRGPGGAWAAEVITDARENIQRFFGHGAEDSLADQAANEWGRSGKDPNHFRPAGLPEKY
notes: also called SAA; lipid-free SAA
- fold increase of uptake over mock transfected HeLa cells [1]: > 5 fold
- concentration at which SAA uptake plateaus (CLA-1 [2]): 2.5 µg/mL and 2.5 to 5 µg/mL
- competition with Alexa 488-SAA for CLA-1 (CLA-1 [3]): efficient competitor; also recorded: competed for CLA-1 binding with Alexa 488-SAA
